10 molecules from patent US20240270826A1 (NATIONAL RESEARCH COUNCIL OF CANADA, published 2024) can be followed below.

The target of test [1] is SARS-CoV-2 S1-NTD (aa16-305) (SARS-CoV-2 Wuhan, UniProt P0DTC2 16-305). Nature of the test: ELISA.
Test [2] addresses T1, SARS-CoV-2 S2 (aa686-1208) (Wuhan) (SARS-CoV-2 Wuhan, UniProt P0DTC2 686-1208).
T1 construct: NRC; FLAG, 6xHis tags
Briefly: ELISA. (An ELISA detects its analyte on a solid surface through an enzyme-linked reagent.)

The target in test [3] is T2, RBD (aa319-541) (Wuhan) (SARS-CoV-2 (Wuhan), UniProt P0DTC2 319-541). Briefly: SPR, RBD over captured VHH-Fc. On the technique in general: SPR reads the build-up and loss of mass on a sensor chip optically.
In a further test the target is RBD_SARS-CoV (aa306-527) (SARS-CoV, UniProt P59594 306-527). Nature of the test: SPR, RBD over captured VHH-Fc.
Test [4] has as its target T2, RBD (aa319-541) (Wuhan). Nature of the test: SPR, RBD over captured VHH-Fc (per Table 11 footnote).
For test [5], the target named is T3, SARS-CoV-2 S on CHO-S cells (SARS-CoV-2, UniProt P0DTC2 14-1273).
T3 construct: whole, on cells
Nature of the test: flow cytometry, CHO-S cells. (A flow cytometer gives signals particle by particle.)

Test [6] has as its target T4, SARS-CoV-2 S1 (aa16-685) (Wuhan) (SARS-CoV-2 Wuhan, UniProt P0DTC2 16-685).
T4 construct: NRC; FLAG, 6xHis tags
Nature of the test: SPR, antigen on chip.

Test [7] has as its target T5, SARS-CoV-2 spike trimer S (Wuhan, SmT1) (SARS-CoV-2 Wuhan).
T5 construct: extracellular domain
Briefly: SPR, antigen on chip.

In test [8] the target is T6, SARS-CoV-2 S1-RBD fused to human Fc (S1-RBD-Fc) (SARS-CoV-2 Wuhan; human). Nature of the test: SPR, antigen on chip.
Test [9] addresses T1, SARS-CoV-2 S2 (aa686-1208) (Wuhan). Briefly: SPR, antigen on chip.
In test [10] the target is T5, SARS-CoV-2 spike trimer S (Wuhan, SmT1). Nature of the test: flow cytometry, inhibition of S binding to ACE2 on Vero E6 cells, monomeric VHH.
In test [11] the target is T4, SARS-CoV-2 S1 (aa16-685) (Wuhan). Nature of the test: SPR, antigen on chip. The source holds these as a separate data set.
Test [12] has as its target T5, SARS-CoV-2 spike trimer S (Wuhan, SmT1). Briefly: SPR, antigen on chip. This is another data set of the same source.
In test [13] the target is T6, SARS-CoV-2 S1-RBD fused to human Fc …. Nature of the test: SPR, antigen on chip. The source holds these as a separate data set.
The target in test [14] is T1, SARS-CoV-2 S2 (aa686-1208) (Wuhan). Briefly: SPR, antigen on chip. The source holds these as a separate data set.
Test [15] concerns the target T7, ACE2-Fc (human ACE2 aa18-740 fused to human IgG1 Fc) (human, UniProt Q9BYF1 18-740).
T7 construct: range 18-740
Nature of the test: ELISA.

The target of test [16] is Human SARS-CoV-2_Wuhan S (SmT1) (SARS-CoV-2 (Wuhan), UniProt P0DTC2 14-1208). Nature of the test: tandem SPR, immobilized S, orientation 1: VHH alone.
In test [17] the target is T1, SARS-CoV-2 S2 (aa686-1208) (Wuhan). Nature of the test: SPR single-cycle kinetics, VHH over immobilized S2 [cont.].
A further test concerns the target SARS-CoV spike (S) (SARS-CoV, UniProt P59594 14-1195). Nature of the test: ELISA.
The target in test [18] is SARS-CoV-2 RBD (aa319-541) (Wuhan), monomeric (SARS-CoV-2 Wuhan, UniProt P0DTC2 319-541). Briefly: SPR, monomeric RBD over captured VHH-Fc.
Test [19] addresses T4, SARS-CoV-2 S1 (aa16-685) (Wuhan). Nature of the test: SPR single-cycle kinetics, VHH over immobilized S1 [cont.].

For orientation: Kd means a measure of binding affinity in units of concentration. Low values mean a tighter complex, high ones a looser complex. A word on the koff: it is the first-order rate constant of dissociation. Low readings indicate a long-lived complex, high ones a short-lived complex. In general, kon refers to the second-order rate constant of association. What is called EC50 is the concentration needed to bring the measured effect to its halfway point. High values mean a need for much substance, low ones an effect from little substance. One may read the IC50 as the point on the concentration scale where inhibition reaches its midpoint. A higher IC50 goes with a need for much substance.

Where two headings read alike, the source gives them in different places.

T7 sequence (Q9BYF1 18-740 limits assumed): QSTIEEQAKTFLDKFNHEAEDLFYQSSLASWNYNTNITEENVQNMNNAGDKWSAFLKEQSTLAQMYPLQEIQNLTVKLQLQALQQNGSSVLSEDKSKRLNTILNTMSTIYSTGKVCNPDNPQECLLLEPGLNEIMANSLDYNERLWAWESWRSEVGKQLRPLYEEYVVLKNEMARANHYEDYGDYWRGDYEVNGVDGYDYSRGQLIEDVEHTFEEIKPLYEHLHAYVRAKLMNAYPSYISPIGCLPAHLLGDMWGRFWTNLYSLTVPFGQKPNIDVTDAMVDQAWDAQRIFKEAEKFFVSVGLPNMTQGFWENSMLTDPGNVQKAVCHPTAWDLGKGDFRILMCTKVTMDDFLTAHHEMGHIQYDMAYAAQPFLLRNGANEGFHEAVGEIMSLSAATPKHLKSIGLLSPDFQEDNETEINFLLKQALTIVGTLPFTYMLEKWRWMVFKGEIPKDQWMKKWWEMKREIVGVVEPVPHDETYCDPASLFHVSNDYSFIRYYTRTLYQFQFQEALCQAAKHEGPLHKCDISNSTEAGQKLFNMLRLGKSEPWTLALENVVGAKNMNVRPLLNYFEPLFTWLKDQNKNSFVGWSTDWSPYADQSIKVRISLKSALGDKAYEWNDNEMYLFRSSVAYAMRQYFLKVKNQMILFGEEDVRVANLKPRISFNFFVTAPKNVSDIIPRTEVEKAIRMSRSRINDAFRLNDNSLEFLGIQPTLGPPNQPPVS

B1: NRCoV2-12 VHH-Fc (Fc fusion)
chain: EVQLQQSGGGLVQAGGSLRLSCAASGRTFRNYVMGWFRQAPQAPGKDHEFVAAISWGGTEIYYADSVKGRFTISRDNAKNTVYLQMNSLKPEDTAVYYCAADRGLSYYYTRTTEYNYWGQGTQVTVSS
For the molecule B1, in test [1], the binding result is “no binding (tested: 13 nM)”. Also, the binding result in test [2] is “no binding (tested: 13 nM)”. In addition, in the test with RBD (aa319-541) (Wuhan) [3], binding was put at a Kd of 0.0469 nM, the koff came to 3.5e-05 s⁻¹ and the kon is 747000 M⁻¹ s⁻¹. In the test with RBD_SARS-CoV (aa306-527), this molecule showed a Kd of 2.69 nM, a koff of 0.00101 s⁻¹ and an on-rate (kon) of 376000 M⁻¹ s⁻¹. The molecule also came in with a Kd with RBD (aa319-541) (Wuhan) [4] of 0.047 nM. In test [5], this molecule displayed a Bmax of 21800 and a concentration for a half-maximal effect (EC50) of 0.8 nM.

B2: NRCoV2-MRed04 VHH (VHH)
VHH: EVQLVESGGGLVQPGRSLRLSCAASGNSFSISTMGWFRQAPGKERELVASIWSDTTTSYADSVKGRFTISTDNTRTKVYLQMSSLNPEDTAVYYCAADRGFVVRGQYDYWGQGTQVTVSS
In the case of B2, the equilibrium dissociation constant (Kd) was found to be 1.68 nM in test [6], 1.09 nM in test [7] and 2.06 nM in test [8]. In addition, the koff in test [6] stood at 0.00183 s⁻¹; in test [7], 0.0015 s⁻¹; in test [8], 0.00176 s⁻¹. In addition, the on-rate constant (kon) worked out at 1.09e+06 M⁻¹ s⁻¹ in [6], 1.39e+06 M⁻¹ s⁻¹ in test [7] and 855000 M⁻¹ s⁻¹ in [8]. Further, the binding result in [9] is given as “no binding”.

B3: NRCoV2-17 VHH (VHH)
VHH: EVQLQQSGGGLVQTGGSLRLSCAAAGSPFSQLAMSWYRQISGKERAWVASISPTGNRSYSKIAKGRFTISRDNAKNTVTLQMTSLKPEDTAAYICQAANVNGGDYWGQGTQVTVSS
Molecule B3 returned a concentration for half-maximal inhibition (IC50) in [10] of 9.4 nM. In addition, the equilibrium dissociation constant (Kd) was determined as 0.153 nM in test [11], 0.149 nM in test [12] and 0.395 nM in [13]. Also, the koff came to 9.66e-05 s⁻¹ in test [11], 9.79e-05 s⁻¹ in test [12] and 0.000224 s⁻¹ in [13]. Besides, the on-rate constant (kon) is 629000 M⁻¹ s⁻¹ in test [11], 659000 M⁻¹ s⁻¹ in test [12] and 567000 M⁻¹ s⁻¹ in test [13]. In addition, in test [14], the binding result was “no binding”.

B4: Human CoV-HKU1 S (other)
chain: AVIGDFNCTNSFINDYNKTIPRISEDVVDVSLGLGTYYVLNRVYLNTTLLFTGYFPKSGANFRDLALKGSIYLSTLWYKPPFLSDFNNGIFSKVKNTKLYVNNTLYSEFSTIVIGSVFVNTSYTIVVQPHNGILEITACQYTMCEYPHTVCKSKGSIRNESWHIDSSEPLCLFKKNFTYNVSADWLYFHFYQERGVFYAYYADVGMPTTFLFSLYLGTILSHYYVMPLTCNAISSNTDNETLEYWVTPLSRRQYLLNFDEHGVITNAVDCSSSFLSEIQCKTQSFAPNTGVYDLSGFTVKPVATVYRRIPNLPDCDIDNWLNNVSVPSPLNWERRIFSNCNFNLSTLLRLVHVDSFSCNNLDKSKIFGSCFNSITVDKFAIPNRRRDDLQLGSSGFLQSSNYKIDISSSSCQLYYSLPLVNVTINNFNPSSWNRRYGFGSFNLSSYDVVYSDHCFSVNSDFCPCADPSVVNSCAKSKPPSAICPAGTKYRHCDLDTTLYVKNWCRCSCLPDPISTYSPNTCPQKKVVVGIGEHCPGLGINEEKCGTQLNHSSCFCSPDAFLGWSFDSCISNNRCNIFSNFIFNGINSGTTCSNDLLYSNTEISTGVCVNYDLYGITGQGIFKEVSAAYYNNWQNLLYDSNGNIIGFKDFLTNKTYTILPCYSGRVSAAFYQNSSSPALLYRNLKCSYVLNNISFISQPFYFDSYLGCVLNAVNLTSYSVSSCDLRMGSGFCIDYALPSSRRKRRGISSPYRFVTFEPFNVSFVNDSVETVGGLFEIQIPTNFTIAGHEEFIQTSSPKVTIDCSAFVCSNYAACHDLLSEYGTFCDNINSILNEVNDLLDITQLQVANALMQGVTLSSNLNTNLHSDVDNIDFKSLLGCLGSQCGSSSRSLLEDLLFNKVKLSDVGFVEAYNNCTGGSEIRDLLCVQSFNGIKVLPPILSETQISGYTTAATVAAMFPPWSAAAGVPFSLNVQYRINGLGVTMDVLNKNQKLIANAFNKALLSIQNGFTATNSALAKIQSVVNANAQALNSLLQQLFNKFGAISSSLQEILSRLDNLEAQVQIDRLINGRLTALNAYVSQQLSDITLIKAGASRAIEKVNECVKSQSPRINFCGNGNHILSLVQNAPYGLLFIHFSYKPTSFKTVLVSPGLCLSGDRGIAPKQGYFIKQNDSWMFTGSSYYYPEPISDKNVVFMNSCSVNFTKAPFIYLNNSIPNLSDFEAELSLWFKNHTSIAPNLTFNSHINATFLDLYYEMNVIQESIKSLNSSFINLKEIGTYEMYVKWP
notes: Sino Biological; 6xHis
Consider B4, for which the binding result in test [15] was “no binding (tested: 13 nM)”.

B5: NRCoV2-SR03 VHH (VHH)
VHH: AVQLVDSGGGLVQAGGSLRLSCAASGSIFSNNHMGWYRQAPGKQRELVAAISSGGKTNYADFAKGRFTISRDNAKNMVYLQMNSLKPEDTAVYYCNRGGWEYRSSYYIMGPHWGQGTQVTVSS
For the molecule B5, the “End 1st inj (RU)” value in [16] worked out at 18.5 RU. Further, the binding result in [17] was “no binding (tested: 20 nM)”.

B6: NRCoV2-02 VHH (VHH)
VHH: EVQLVESGGGLVQAGGSLRLSCAASGFTFSNYAMNWVRQAPGKGLEWVSGISGRGDDTRYADSVKGRFTISRDNAKNTLFLQMRSLRPEDTGVYRCTKGPDLYYFGSGYSDRGQGTQVTVSS
Consider B6, for which the “End 1st inj (RU)” value in [16] stood at 33 RU. Moreover, the binding result in test [17] is “no binding (tested: 10 nM)”.

B7: NRCoV2-MRed05 VHH-Fc (Fc fusion)
chain: EVQLVESGGGLVQPGGSLRLSCAASGFTLDYYAIGWFRQAPGKEREGVSCISSSDGSTLYADSVKGRFTISRDNAKNTVYLQMNSLKPEDTAVYYCATGPQAYYSGSYYFQCPQAGMDYWGKGTQVTVSS
For B7, the binding result with SARS-CoV spike (S) is “no binding (tested: 13 nM)”; in test [1], “no binding (tested: 13 nM)”; in test [2] it was “no binding (tested: 13 nM)”; in the test with RBD_SARS-CoV (aa306-527) it was “no binding”. In addition, the results for the equilibrium dissociation constant (Kd) with RBD (aa319-541) (Wuhan) [3] and with RBD (aa319-541) (Wuhan) [4] were 0.905 nM and 0.91 nM, respectively. The molecule further came in with an off-rate constant (koff) with RBD (aa319-541) (Wuhan) [3] of 0.000509 s⁻¹. This molecule gave an on-rate (kon) with RBD (aa319-541) (Wuhan) [3] of 562000 M⁻¹ s⁻¹. In [5], this molecule showed a Bmax of 17300. In test [5], this molecule came in with a half-maximal effective concentration (EC50) of 0.5 nM.

B8: NRCoV2-MRed05 VHH-Fc (Fc fusion)
chain: EVQLVESGGGLVQPGGSLRLSCAASGFTLDYYAIGWFRQAPGKEREGVSCISSSDGSTLYADSVKGRFTISRDNAKNTVYLQMNSLKPEDTAVYYCATGPQAYYSGSYYFQCPQAGMDYWGKGTQVTVSS
notes: bivalent
In [18], B8 came in with a Kd of 0.763 nM, a koff of 0.000496 s⁻¹ and an association rate constant (kon) of 650000 M⁻¹ s⁻¹.

B9: NRCoV2-11 VHH (VHH)
VHH: EVQLVSSGGGLVQPGGSLRLSCAASGSSLDSYSVSWFRQAPGKEREWISFISRYYSSTYYTDSVKGRFTTSRDGDQKTVHLQMNSLKPEDTAVYYCAARSRDFSSPFSATDTYTSWGQGTQVTVSS
Take B9: in test [10], the IC50 worked out at 16.8 nM. Besides, the equilibrium dissociation constant (Kd) in test [11] worked out at 0.167 nM; in test [12], 0.0391 nM; in test [13], 0.253 nM. Also, the koff in test [11] stood at 0.00018 s⁻¹; in [12], 4.73e-05 s⁻¹; in test [13] it was 0.000226 s⁻¹. The kon came to 1.08e+06 M⁻¹ s⁻¹ in test [11], 1.21e+06 M⁻¹ s⁻¹ in test [12] and 892000 M⁻¹ s⁻¹ in [13].

B10: NRCoV2-S2A4 VHH (VHH)
VHH: QVQLVQSGGGLVQAGGSLRLSCAVSGSPFRSNVMEWYRQAPGKQRELVASISTGGSRTYTDSVKGRFTISRDNAKNEAFLQMNSLKPEDTAVYYCHAAARDSHGIYLLDTWGQGTQVTVSS
Turning to B10, the binding result in [19] is on record as “no binding (tested: 40 nM)”. Further, the “End 1st inj (RU)” value in [16] amounted to 11.6 RU.
